{"source": "patent US20130157289A1", "about": "(Genentech, published 2013)", "key": {"human STEAP-1 [1]": {"molecular_target": "T1, human STEAP-1 (human, UniProt Q9UHE8 1-339)", "T1 construct": "Six-transmembrane cell surface antigen; Exogenous full length STEAP-1 stably expressed in 293 cells (LB50, LB48, LB53) and PC3 cells (PS5.4); endogenous in LNCaP / LNCaP-BR cells; also called Six Transmembrane Epithelial Antigen of the Prostate 1", "T1 sequence (Q9UHE8 other isoform, or with tags, fused parts or gaps)": "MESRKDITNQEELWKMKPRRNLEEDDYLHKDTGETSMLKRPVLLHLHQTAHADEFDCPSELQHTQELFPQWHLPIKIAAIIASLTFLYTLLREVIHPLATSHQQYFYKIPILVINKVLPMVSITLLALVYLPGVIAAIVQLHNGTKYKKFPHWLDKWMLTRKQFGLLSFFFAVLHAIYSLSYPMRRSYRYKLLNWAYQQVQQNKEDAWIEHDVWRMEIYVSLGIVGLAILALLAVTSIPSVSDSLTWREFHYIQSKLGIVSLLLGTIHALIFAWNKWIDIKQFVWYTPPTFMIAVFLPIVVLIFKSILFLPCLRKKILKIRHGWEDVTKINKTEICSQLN", "assay": "FACS of display-normalised Fab phage, aligned histograms; no cell name on the panel, traces as in FIG. 6A (LB50)", "method": "Phage expressing Fab variants were first assessed for their Fab display level using an phage ELISA used to detect a […] fused to the light chain of the Fab. MaxiSorp microtiter plates were coated with anti-gD 1766 at 10 μg/ml in PBS over night and then blocked with Casein Blocker. Phage from culture supernatants were serially diluted in PBST containing 0.5% BSA in a tissue culture microtiter plate and transferred to the coated wells for 1 h to capture the Fab displaying phage. The plate was washed with PBST and HRP conjugated anti-M13 (Amersham Pharmacia Biotech) was added (1:5000 in PBST containing 0.5% BSA) for 40 min. The plate was washed with PBST and developed by adding Tetramethylbenzidine substrate (Kirkegaard and Perry Laboratories, Gaithersburg, Md.). The absorbance at 405 nm was used as an estimate of the Fab display level on the surface of the phage. Phage preparations were normalized for display by dilution. Low displaying phage (e.g. the chimera) were used neat for FACS analysis.\nFor FACS analysis of phage binding, cells were removed from the plate using 2 mM EDTA, collected in a 15 mL conical bottom tube and pelleted by centrifugation. Cells (5×10⁵ cells per sample) were re-suspended in 100 μL of phage (normalized by display level) in FACS buffer (1% FBS, PBS with 2 mM EDTA) and incubated for 1-2 hours on ice. Samples were washed twice with FACS buffer by centrifugation. Anti-M13 5G7 control antibody (Genentech, Inc. South San Francisco, Calif.) was added at 2 μg/mL and incubated on ice for at least 45 minutes. Samples were washed twice with FACS buffer by centrifugation. A 1:200 dilution of anti-mouse PE (R-phycoerythrin goat anti-mouse IgG Fcy Fragment, Jackson Immunoresearch) was added and incubated on ice for 30 minutes. Samples were again washed twice with FACS buffer by centrifugation and analyzed by FACS."}, "human STEAP-1 [2]": {"molecular_target": "T1, human STEAP-1", "assay": "Scatchard analysis on 293-LB50 cells, average value", "description": "(§1) IgG was purified with Protein G affinity chromatography."}, "human STEAP-1 [3]": {"molecular_target": "T1, human STEAP-1", "assay": "Scatchard analysis on LNCaP-BR cells, average value", "description": "as §1"}, "human STEAP-1 [4]": {"molecular_target": "T1, human STEAP-1", "assay": "Scatchard analysis on LNCaP.BR cells, Assay 740; displacement curve and Scatchard plot", "description": "as §1"}, "human STEAP-1 [5]": {"molecular_target": "T1, human STEAP-1", "assay": "Scatchard analysis on 293.LB50 cells, Assay 737; displacement curve and Scatchard plot", "description": "as §1"}, "human STEAP-1 [6]": {"molecular_target": "T1, human STEAP-1", "assay": "Scatchard analysis on 293.LB50 cells, Assay 738; displacement curve and Scatchard plot", "description": "as §1"}, "human STEAP-1 [7]": {"molecular_target": "T1, human STEAP-1", "assay": "Scatchard analysis on 293 cells transiently expressing human STEAP-1 (293-Transient Human Steap1)", "description": "as §1"}, "[8]": {"molecular_target": "T2, cynomolgus monkey STEAP-1 (cynomolgus monkey, UniProt Q9UHE8 1-339 (human entry))", "T2 construct": "the expressing cell line is not described; also called cyno STEAP-1", "T2 sequence (Q9UHE8 other isoform, or with tags, fused parts or gaps)": "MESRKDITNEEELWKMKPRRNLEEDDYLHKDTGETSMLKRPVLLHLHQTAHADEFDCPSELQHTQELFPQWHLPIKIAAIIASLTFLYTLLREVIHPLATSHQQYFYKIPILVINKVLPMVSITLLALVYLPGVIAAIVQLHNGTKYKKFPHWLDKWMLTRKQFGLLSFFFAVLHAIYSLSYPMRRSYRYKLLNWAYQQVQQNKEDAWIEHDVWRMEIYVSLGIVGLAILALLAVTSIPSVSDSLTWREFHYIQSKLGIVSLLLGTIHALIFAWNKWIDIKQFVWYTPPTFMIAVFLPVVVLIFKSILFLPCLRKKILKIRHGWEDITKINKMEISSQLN", "assay": "Scatchard analysis on 293 cells transiently expressing cynomolgus STEAP-1 (293-Transient Cyno Steap1); side note: Same Affinity for Human & Cyno"}, "human STEAP-1 [9]": {"molecular_target": "T1, human STEAP-1", "assay": "Scatchard analysis on LNCaP.BR cells, Assay 739; displacement curve (Bound/Total against Total, nM) and Scatchard plot (Bound/Free against Bound, pM)", "description": "as §1"}, "human STEAP-1 [10]": {"molecular_target": "T1, human STEAP-1", "assay": "Scatchard analysis on 293 STEAP-1 NT LB50 cells", "description": "as §1"}}}
{"binder": "37 Phage (Fab, V domains shown, monovalent Fab-g3 phage display; also called V37I variant of the 120 graft) VH: EVQLVESGGGLVQPGGSLRLSCAASGYSITSDYAWNWIRQAPGKGLEWVGYISNSGSTSYNPSLKSRFTISRDNSKNTLYLQMNSLRAEDTAVYYCARERNYDYDDYYYAMDYWGQGTLVTVSS VL: DIQMTQSPSSLSASVGDRVTITCKSSQSLLYRSNQKNYLAWYQQKPGKAPKLLIYWASTRESGVPSRFSGSGSGTDFTLTISSLQPEDFATYYCQQYYNYPRTFGQGTKVEIKR", "values": [{"measurement": "binding result", "setting": "human STEAP-1 [1]", "value": "binds"}]}
{"binder": "Original Thio 120V24 (antibody, V domains shown, cysteine engineered form of humanized 120.v24; also called Orig Thio PUR 12813; Thio Mab) VH: EVQLVESGGGLVQPGGSLRLSCAVSGYSITSDYAWNWVRQAPGKGLEWVGYISNSGSTSYNPSLKSRFTISRDNSKNTLYLQMNSLRAEDTAVYYCARERNYDYDDYYYAMDYWGQGTLVTVSS VL: DIQMTQSPSSLSASVGDRVTITCKSSQSLLYRSNQKNYLAWYQQKPGKAPKLLIYWASTRESGVPSRFSGSGSGTDFTLTISSLQPEDFATYYCQQYYNYPRTFGQGTKVEIKR", "values": [{"measurement": "Kd", "setting": "human STEAP-1 [2]", "value": 1.9, "unit": "nM"}, {"measurement": "Kd", "setting": "human STEAP-1 [3]", "value": 1.4, "unit": "nM"}, {"measurement": "Kd", "setting": "human STEAP-1 [4]", "value": 1.7, "unit": "nM"}, {"measurement": "Kd", "setting": "human STEAP-1 [5]", "value": 1.7, "unit": "nM"}, {"measurement": "Kd", "setting": "human STEAP-1 [6]", "value": 2, "unit": "nM"}, {"measurement": "Kd", "setting": "human STEAP-1 [7]", "value": 1.4, "unit": "nM"}, {"measurement": "Kd", "setting": "[8]", "value": 1.1, "unit": "nM"}, {"measurement": "Kd", "setting": "human STEAP-1 [9]", "value": 1.1, "unit": "nM"}]}
{"binder": "humanized anti-STEAP-1 120v.24 (antibody, name in Kabat numbering, V domains shown, constant regions not specified; also called humanized 120v.24 (clone 67); humanized version 24) VH: EVQLVESGGGLVQPGGSLRLSCAVSGYSITSDYAWNWVRQAPGKGLEWVGYISNSGSTSYNPSLKSRFTISRDNSKNTLYLQMNSLRAEDTAVYYCARERNYDYDDYYYAMDYWGQGTLVTVSS VL: DIQMTQSPSSLSASVGDRVTITCKSSQSLLYRSNQKNYLAWYQQKPGKAPKLLIYWASTRESGVPSRFSGSGSGTDFTLTISSLQPEDFATYYCQQYYNYPRTFGQGTKVEIKR", "values": [{"measurement": "fold improvement in Kd over the 120 chimera and murine M2-120.545", "setting": "human STEAP-1 [10]", "value": 2, "unit": "fold"}]}
{"binder": "48 Phage (Fab, V domains shown, monovalent Fab-g3 phage display; also called V48M variant of the 120 graft) VH: EVQLVESGGGLVQPGGSLRLSCAASGYSITSDYAWNWVRQAPGKGLEWMGYISNSGSTSYNPSLKSRFTISRDNSKNTLYLQMNSLRAEDTAVYYCARERNYDYDDYYYAMDYWGQGTLVTVSS VL: DIQMTQSPSSLSASVGDRVTITCKSSQSLLYRSNQKNYLAWYQQKPGKAPKLLIYWASTRESGVPSRFSGSGSGTDFTLTISSLQPEDFATYYCQQYYNYPRTFGQGTKVEIKR", "values": [{"measurement": "binding result", "setting": "human STEAP-1 [1]", "value": "binds"}]}
{"binder": "67 Phage (Fab, V domains shown, monovalent Fab-g3 phage display; also called F67I variant of the 120 graft) VH: EVQLVESGGGLVQPGGSLRLSCAASGYSITSDYAWNWVRQAPGKGLEWVGYISNSGSTSYNPSLKSRITISRDNSKNTLYLQMNSLRAEDTAVYYCARERNYDYDDYYYAMDYWGQGTLVTVSS VL: DIQMTQSPSSLSASVGDRVTITCKSSQSLLYRSNQKNYLAWYQQKPGKAPKLLIYWASTRESGVPSRFSGSGSGTDFTLTISSLQPEDFATYYCQQYYNYPRTFGQGTKVEIKR", "values": [{"measurement": "binding result", "setting": "human STEAP-1 [1]", "value": "binds"}]}
